In the array DNA melting data of Ke et al.:

Assay: melting temperature; melt of duplexes
Details: sodium 0.0675 M; strand 1 µM

Substance	Tm [°C]
CGACGTGCCGAATGTGCTG+CAGCACATCGAGCACGTCG ((((((((...((((((((+))))))))...))))))))	55.3
CGACGTGCCGAATGTGCTG+CAGCACATCGTGCACGTCG ((((((((...((((((((+))))))))...))))))))	51.9
CGACGTGCCGAATGTGCTG+CAGCACATCTAGCACGTCG ((((((((...((((((((+))))))))...))))))))	50.1
CGACGTGCCGAATGTGCTG+CAGCACATCTTGCACGTCG ((((((((...((((((((+))))))))...))))))))	48.8
CGACGTGCCGAATGTGCTG+CAGCACATGAGGCACGTCG (((((((((..((((((((+))))))))..)))))))))	63.8
CGACGTGCCGAATGTGCTG+CAGCACATGCCGCACGTCG ((((((((.(.((((((((+)))))))).).))))))))	51.5
CGACGTGCCGAATGTGCTG+CAGCACATGCGGCACGTCG ((((((((((.((((((((+)))))))).))))))))))	61.6
CGACGTGCCGAATGTGCTG+CAGCACATGGCGCACGTCG ((((((((...((((((((+))))))))...))))))))	51.5
CGACGTGCCGAATGTGCTG+CAGCACATGGGGCACGTCG (((((((((..((((((((+))))))))..)))))))))	56.8
CGACGTGCCGAATGTGCTG+CAGCACATGTCGCACGTCG ((((((((...((((((((+))))))))...))))))))	51.4
CGACGTGCCGAATGTGCTG+CAGCACATTAGGCACGTCG (((((((((.(((((((((+))))))))).)))))))))	59.6
CGACGTGCCGAATGTGCTG+CAGCACATTCGGCACGTCG (((((((((((((((((((+)))))))))))))))))))	66.5
CGACGTGCCGAATGTGCTG+CAGCACATTGAGCACGTCG ((((((((..(((((((((+)))))))))..))))))))	53.3
CGACGTGCCGAATGTGCTG+CAGCACATTGGGCACGTCG (((((((((.(((((((((+))))))))).)))))))))	59
CGACGTGCCGCATGTGCTG+CAGCACATAACGCACGTCG ((((((((...((((((((+))))))))...))))))))	48.3
CGACGTGCCGCATGTGCTG+CAGCACATAGAGCACGTCG ((((((((...((((((((+))))))))...))))))))	50.7
CGACGTGCCGCATGTGCTG+CAGCACATAGCGCACGTCG ((((((((...((((((((+))))))))...))))))))	53.9
CGACGTGCCGCATGTGCTG+CAGCACATATAGCACGTCG ((((((((...((((((((+))))))))...))))))))	48.2
CGACGTGCCGCATGTGCTG+CAGCACATCCCGCACGTCG ((((((((.(.((((((((+)))))))).).))))))))	48.8
CGACGTGCCGCATGTGCTG+CAGCACATCGTGCACGTCG ((((((((...((((((((+))))))))...))))))))	50.5
CGACGTGCCGCATGTGCTG+CAGCACATCTCGCACGTCG ((((((((...((((((((+))))))))...))))))))	47.8
CGACGTGCCGCATGTGCTG+CAGCACATCTGGCACGTCG (((((((((..((((((((+))))))))..)))))))))	54.2
CGACGTGCCGCATGTGCTG+CAGCACATCTTGCACGTCG ((((((((...((((((((+))))))))...))))))))	47.4
CGACGTGCCGCATGTGCTG+CAGCACATGCAGCACGTCG ((((((((.((((((((((+)))))))))).))))))))	60

Substance	Tm [°C]
CGACGTGCCGCATGTGCTG+CAGCACATGCCGCACGTCG ((((((((.((((((((((+)))))))))).))))))))	58.9
CGACGTGCCGCATGTGCTG+CAGCACATGGAGCACGTCG ((((((((..(((((((((+)))))))))..))))))))	55.1
CGACGTGCCGCATGTGCTG+CAGCACATGTGGCACGTCG (((((((((.(((((((((+))))))))).)))))))))	62.9
CGACGTGCCGCATGTGCTG+CAGCACATTCAGCACGTCG ((((((((.(.((((((((+)))))))).).))))))))	48.9
CGACGTGCCGCATGTGCTG+CAGCACATTCGGCACGTCG ((((((((((.((((((((+)))))))).))))))))))	59.1
CGACGTGCCGCATGTGCTG+CAGCACATTGAGCACGTCG ((((((((...((((((((+))))))))...))))))))	49.5
CGACGTGCCGCATGTGCTG+CAGCACATTGGGCACGTCG (((((((((..((((((((+))))))))..)))))))))	54.4
CGACGTGCCGGATGTGCTG+CAGCACATAAAGCACGTCG ((((((((...((((((((+))))))))...))))))))	50.2
CGACGTGCCGGATGTGCTG+CAGCACATACCGCACGTCG ((((((((.(.((((((((+)))))))).).))))))))	53.6
CGACGTGCCGGATGTGCTG+CAGCACATAGAGCACGTCG ((((((((...((((((((+))))))))...))))))))	50.2
CGACGTGCCGGATGTGCTG+CAGCACATAGCGCACGTCG ((((((((...((((((((+))))))))...))))))))	49.9
CGACGTGCCGGATGTGCTG+CAGCACATATAGCACGTCG ((((((((...((((((((+))))))))...))))))))	49.9
CGACGTGCCGGATGTGCTG+CAGCACATATGGCACGTCG (((((((((..((((((((+))))))))..)))))))))	57.2
CGACGTGCCGGATGTGCTG+CAGCACATCAAGCACGTCG ((((((((..(((((((((+)))))))))..))))))))	54.8
CGACGTGCCGGATGTGCTG+CAGCACATCAGGCACGTCG (((((((((.(((((((((+))))))))).)))))))))	62.6
CGACGTGCCGGATGTGCTG+CAGCACATCCGGCACGTCG (((((((((((((((((((+)))))))))))))))))))	68.2
CGACGTGCCGGATGTGCTG+CAGCACATCTAGCACGTCG ((((((((..(((((((((+)))))))))..))))))))	55
CGACGTGCCGGATGTGCTG+CAGCACATCTCGCACGTCG ((((((((..(((((((((+)))))))))..))))))))	54.1
CGACGTGCCGGATGTGCTG+CAGCACATCTGGCACGTCG (((((((((.(((((((((+))))))))).)))))))))	62.7
CGACGTGCCGGATGTGCTG+CAGCACATGCGGCACGTCG ((((((((((.((((((((+)))))))).))))))))))	62.6
CGACGTGCCGGATGTGCTG+CAGCACATGGAGCACGTCG ((((((((...((((((((+))))))))...))))))))	51
CGACGTGCCGGATGTGCTG+CAGCACATGGTGCACGTCG ((((((((...((((((((+))))))))...))))))))	47
CGACGTGCCGGATGTGCTG+CAGCACATTACGCACGTCG ((((((((...((((((((+))))))))...))))))))	50.1
CGACGTGCCGGATGTGCTG+CAGCACATTAGGCACGTCG (((((((((..((((((((+))))))))..)))))))))	57

Substance	Tm [°C]
CGACGTGCCGGATGTGCTG+CAGCACATTATGCACGTCG ((((((((...((((((((+))))))))...))))))))	49.7
CGACGTGCCGGATGTGCTG+CAGCACATTCCGCACGTCG ((((((((.(.((((((((+)))))))).).))))))))	54
CGACGTGCCGGATGTGCTG+CAGCACATTCTGCACGTCG ((((((((.(.((((((((+)))))))).).))))))))	52.3
CGACGTGCCGGATGTGCTG+CAGCACATTGTGCACGTCG ((((((((...((((((((+))))))))...))))))))	47.3
CGACGTGCCGGATGTGCTG+CAGCACATTTAGCACGTCG ((((((((...((((((((+))))))))...))))))))	49.4
CGACGTGCCGTATGTGCTG+CAGCACATAAAGCACGTCG ((((((((..(((((((((+)))))))))..))))))))	51.5
CGACGTGCCGTATGTGCTG+CAGCACATAACGCACGTCG ((((((((..(((((((((+)))))))))..))))))))	52.6
CGACGTGCCGTATGTGCTG+CAGCACATAATGCACGTCG ((((((((..(((((((((+)))))))))..))))))))	50.3
CGACGTGCCGTATGTGCTG+CAGCACATAGAGCACGTCG ((((((((..(((((((((+)))))))))..))))))))	53.1
CGACGTGCCGTATGTGCTG+CAGCACATAGTGCACGTCG ((((((((..(((((((((+)))))))))..))))))))	49.5
CGACGTGCCGTATGTGCTG+CAGCACATATAGCACGTCG ((((((((..(((((((((+)))))))))..))))))))	52.1
CGACGTGCCGTATGTGCTG+CAGCACATATTGCACGTCG ((((((((..(((((((((+)))))))))..))))))))	51.5
CGACGTGCCGTATGTGCTG+CAGCACATCATGCACGTCG ((((((((...((((((((+))))))))...))))))))	48.9
CGACGTGCCGTATGTGCTG+CAGCACATCCAGCACGTCG ((((((((.(.((((((((+)))))))).).))))))))	49.8
CGACGTGCCGTATGTGCTG+CAGCACATCCTGCACGTCG ((((((((.(.((((((((+)))))))).).))))))))	49.7
CGACGTGCCGTATGTGCTG+CAGCACATCTCGCACGTCG ((((((((...((((((((+))))))))...))))))))	48.5
CGACGTGCCGTATGTGCTG+CAGCACATCTTGCACGTCG ((((((((...((((((((+))))))))...))))))))	48.5
CGACGTGCCGTATGTGCTG+CAGCACATGACGCACGTCG ((((((((...((((((((+))))))))...))))))))	47.8
CGACGTGCCGTATGTGCTG+CAGCACATGCGGCACGTCG ((((((((((.((((((((+)))))))).))))))))))	62.4
CGACGTGCCGTATGTGCTG+CAGCACATGCTGCACGTCG ((((((((.(.((((((((+)))))))).).))))))))	51.2
CGACGTGCCGTATGTGCTG+CAGCACATGGGGCACGTCG (((((((((..((((((((+))))))))..)))))))))	57.1
CGACGTGCCGTATGTGCTG+CAGCACATGGTGCACGTCG ((((((((...((((((((+))))))))...))))))))	46.6
CGACGTGCCGTATGTGCTG+CAGCACATGTGGCACGTCG (((((((((..((((((((+))))))))..)))))))))	55.7
CGACGTGCCGTATGTGCTG+CAGCACATGTTGCACGTCG ((((((((...((((((((+))))))))...))))))))	48.3
